Reference: PMC2168396 (The EMBO Journal, 2007)

B1: talin 2300–2541 (C-terminal actin-binding domain, wild type) (domain or fragment, mouse, UniProt P26039 2300-2541, looked up)
chain: DPTVIAENELLGAAAAIEAAAKKLEQLKPRAKPKEADESLNFEEQILEAAKSIAAATSALVKAASAAQRELVAQGKVGAIPANALDDGQWSQGLISAARMVAAATNNLCEAANAAVQGHASQEKLISSAKQVAASTAQLLVACKVKADQDSEAMKRLQAAGNAVKRASDNLVKAAQKAAAFEDQENETVVVKEKMVGGIAQIIAAQEEMLRKERELEEARKKLAQIRQQQYKFLPSELRDEH
B2: talin 2300–2541 D2385K/D2386N (domain or fragment, mouse, UniProt P26039 2300-2541, looked up)
chain: DPTVIAENELLGAAAAIEAAAKKLEQLKPRAKPKEADESLNFEEQILEAAKSIAAATSALVKAASAAQRELVAQGKVGAIPANALKNGQWSQGLISAARMVAAATNNLCEAANAAVQGHASQEKLISSAKQVAASTAQLLVACKVKADQDSEAMKRLQAAGNAVKRASDNLVKAAQKAAAFEDQENETVVVKEKMVGGIAQIIAAQEEMLRKERELEEARKKLAQIRQQQYKFLPSELRDEH
B3: talin 2300–2541 D2447N (domain or fragment, mouse, UniProt P26039 2300-2541, looked up)
chain: DPTVIAENELLGAAAAIEAAAKKLEQLKPRAKPKEADESLNFEEQILEAAKSIAAATSALVKAASAAQRELVAQGKVGAIPANALDDGQWSQGLISAARMVAAATNNLCEAANAAVQGHASQEKLISSAKQVAASTAQLLVACKVKANQDSEAMKRLQAAGNAVKRASDNLVKAAQKAAAFEDQENETVVVKEKMVGGIAQIIAAQEEMLRKERELEEARKKLAQIRQQQYKFLPSELRDEH
B4: talin 2300–2541 A2518D (domain or fragment)
chain: DPTVIAENELLGAAAAIEAAAKKLEQLKPRAKPKEADESLNFEEQILEAAKSIAAATSALVKAASAAQRELVAQGKVGAIPANALDDGQWSQGLISAARMVAAATNNLCEAANAAVQGHASQEKLISSAKQVAASTAQLLVACKVKADQDSEAMKRLQAAGNAVKRASDNLVKAAQKAAAFEDQENETVVVKEKMVGGIAQIIAAQEEMLRKERELEEDRKKLAQIRQQQYKFLPSELRDEH
B5: talin 2300–2541 Q2388D (domain or fragment, mouse, UniProt P26039 2300-2541, looked up)
chain: DPTVIAENELLGAAAAIEAAAKKLEQLKPRAKPKEADESLNFEEQILEAAKSIAAATSALVKAASAAQRELVAQGKVGAIPANALDDGDWSQGLISAARMVAAATNNLCEAANAAVQGHASQEKLISSAKQVAASTAQLLVACKVKADQDSEAMKRLQAAGNAVKRASDNLVKAAQKAAAFEDQENETVVVKEKMVGGIAQIIAAQEEMLRKERELEEARKKLAQIRQQQYKFLPSELRDEH
B6: talin 2300–2541 L2515D/A2518D (domain or fragment)
chain: DPTVIAENELLGAAAAIEAAAKKLEQLKPRAKPKEADESLNFEEQILEAAKSIAAATSALVKAASAAQRELVAQGKVGAIPANALDDGQWSQGLISAARMVAAATNNLCEAANAAVQGHASQEKLISSAKQVAASTAQLLVACKVKADQDSEAMKRLQAAGNAVKRASDNLVKAAQKAAAFEDQENETVVVKEKMVGGIAQIIAAQEEMLRKEREDEEDRKKLAQIRQQQYKFLPSELRDEH
B7: talin 2300–2541 R2526A (domain or fragment)
chain: DPTVIAENELLGAAAAIEAAAKKLEQLKPRAKPKEADESLNFEEQILEAAKSIAAATSALVKAASAAQRELVAQGKVGAIPANALDDGQWSQGLISAARMVAAATNNLCEAANAAVQGHASQEKLISSAKQVAASTAQLLVACKVKADQDSEAMKRLQAAGNAVKRASDNLVKAAQKAAAFEDQENETVVVKEKMVGGIAQIIAAQEEMLRKERELEEARKKLAQIAQQQYKFLPSELRDEH
B8: talin 2300–2541 D2385K/D2386N/D2447N (domain or fragment, mouse, UniProt P26039 2300-2541, looked up)
chain: DPTVIAENELLGAAAAIEAAAKKLEQLKPRAKPKEADESLNFEEQILEAAKSIAAATSALVKAASAAQRELVAQGKVGAIPANALKNGQWSQGLISAARMVAAATNNLCEAANAAVQGHASQEKLISSAKQVAASTAQLLVACKVKANQDSEAMKRLQAAGNAVKRASDNLVKAAQKAAAFEDQENETVVVKEKMVGGIAQIIAAQEEMLRKERELEEARKKLAQIRQQQYKFLPSELRDEH
B9: talin 2300–2541 K2443D (domain or fragment, mouse, UniProt P26039 2300-2541, looked up)
chain: DPTVIAENELLGAAAAIEAAAKKLEQLKPRAKPKEADESLNFEEQILEAAKSIAAATSALVKAASAAQRELVAQGKVGAIPANALDDGQWSQGLISAARMVAAATNNLCEAANAAVQGHASQEKLISSAKQVAASTAQLLVACDVKADQDSEAMKRLQAAGNAVKRASDNLVKAAQKAAAFEDQENETVVVKEKMVGGIAQIIAAQEEMLRKERELEEARKKLAQIRQQQYKFLPSELRDEH
B10: talin 2300–2541 R2526G (domain or fragment)
chain: DPTVIAENELLGAAAAIEAAAKKLEQLKPRAKPKEADESLNFEEQILEAAKSIAAATSALVKAASAAQRELVAQGKVGAIPANALDDGQWSQGLISAARMVAAATNNLCEAANAAVQGHASQEKLISSAKQVAASTAQLLVACKVKADQDSEAMKRLQAAGNAVKRASDNLVKAAQKAAAFEDQENETVVVKEKMVGGIAQIIAAQEEMLRKERELEEARKKLAQIGQQQYKFLPSELRDEH
B11: talin 2300–2541 K2445D (domain or fragment, mouse, UniProt P26039 2300-2541, looked up)
chain: DPTVIAENELLGAAAAIEAAAKKLEQLKPRAKPKEADESLNFEEQILEAAKSIAAATSALVKAASAAQRELVAQGKVGAIPANALDDGQWSQGLISAARMVAAATNNLCEAANAAVQGHASQEKLISSAKQVAASTAQLLVACKVDADQDSEAMKRLQAAGNAVKRASDNLVKAAQKAAAFEDQENETVVVKEKMVGGIAQIIAAQEEMLRKERELEEARKKLAQIRQQQYKFLPSELRDEH
B12: talin 2300–2541 L2515D (domain or fragment)
chain: DPTVIAENELLGAAAAIEAAAKKLEQLKPRAKPKEADESLNFEEQILEAAKSIAAATSALVKAASAAQRELVAQGKVGAIPANALDDGQWSQGLISAARMVAAATNNLCEAANAAVQGHASQEKLISSAKQVAASTAQLLVACKVKADQDSEAMKRLQAAGNAVKRASDNLVKAAQKAAAFEDQENETVVVKEKMVGGIAQIIAAQEEMLRKEREDEEARKKLAQIRQQQYKFLPSELRDEH
B13: talin 2300–2541 L2309A (domain or fragment, mouse, UniProt P26039 2300-2541, looked up)
chain: DPTVIAENEALGAAAAIEAAAKKLEQLKPRAKPKEADESLNFEEQILEAAKSIAAATSALVKAASAAQRELVAQGKVGAIPANALDDGQWSQGLISAARMVAAATNNLCEAANAAVQGHASQEKLISSAKQVAASTAQLLVACKVKADQDSEAMKRLQAAGNAVKRASDNLVKAAQKAAAFEDQENETVVVKEKMVGGIAQIIAAQEEMLRKERELEEARKKLAQIRQQQYKFLPSELRDEH
B14: talin 2300–2541 L2309A/L2323A (domain or fragment, mouse, UniProt P26039 2300-2541, looked up)
chain: DPTVIAENEALGAAAAIEAAAKKAEQLKPRAKPKEADESLNFEEQILEAAKSIAAATSALVKAASAAQRELVAQGKVGAIPANALDDGQWSQGLISAARMVAAATNNLCEAANAAVQGHASQEKLISSAKQVAASTAQLLVACKVKADQDSEAMKRLQAAGNAVKRASDNLVKAAQKAAAFEDQENETVVVKEKMVGGIAQIIAAQEEMLRKERELEEARKKLAQIRQQQYKFLPSELRDEH
B15: talin 2300–2541 L2323A (domain or fragment, mouse, UniProt P26039 2300-2541, looked up)
chain: DPTVIAENELLGAAAAIEAAAKKAEQLKPRAKPKEADESLNFEEQILEAAKSIAAATSALVKAASAAQRELVAQGKVGAIPANALDDGQWSQGLISAARMVAAATNNLCEAANAAVQGHASQEKLISSAKQVAASTAQLLVACKVKADQDSEAMKRLQAAGNAVKRASDNLVKAAQKAAAFEDQENETVVVKEKMVGGIAQIIAAQEEMLRKERELEEARKKLAQIRQQQYKFLPSELRDEH
B16: talin 2300–2541 R2519A (domain or fragment)
chain: DPTVIAENELLGAAAAIEAAAKKLEQLKPRAKPKEADESLNFEEQILEAAKSIAAATSALVKAASAAQRELVAQGKVGAIPANALDDGQWSQGLISAARMVAAATNNLCEAANAAVQGHASQEKLISSAKQVAASTAQLLVACKVKADQDSEAMKRLQAAGNAVKRASDNLVKAAQKAAAFEDQENETVVVKEKMVGGIAQIIAAQEEMLRKERELEEAAKKLAQIRQQQYKFLPSELRDEH
B17: talin 2300–2541 K2443D/V2444D/K2445D (domain or fragment, mouse, UniProt P26039 2300-2541, looked up)
chain: DPTVIAENELLGAAAAIEAAAKKLEQLKPRAKPKEADESLNFEEQILEAAKSIAAATSALVKAASAAQRELVAQGKVGAIPANALDDGQWSQGLISAARMVAAATNNLCEAANAAVQGHASQEKLISSAKQVAASTAQLLVACDDDADQDSEAMKRLQAAGNAVKRASDNLVKAAQKAAAFEDQENETVVVKEKMVGGIAQIIAAQEEMLRKERELEEARKKLAQIRQQQYKFLPSELRDEH
B18: talin 2300–2541 I2316A/L2323A (domain or fragment, mouse, UniProt P26039 2300-2541, looked up)
chain: DPTVIAENELLGAAAAAEAAAKKAEQLKPRAKPKEADESLNFEEQILEAAKSIAAATSALVKAASAAQRELVAQGKVGAIPANALDDGQWSQGLISAARMVAAATNNLCEAANAAVQGHASQEKLISSAKQVAASTAQLLVACKVKADQDSEAMKRLQAAGNAVKRASDNLVKAAQKAAAFEDQENETVVVKEKMVGGIAQIIAAQEEMLRKERELEEARKKLAQIRQQQYKFLPSELRDEH
B19: talin 2300–2541 I2316A (domain or fragment, mouse, UniProt P26039 2300-2541, looked up)
chain: DPTVIAENELLGAAAAAEAAAKKLEQLKPRAKPKEADESLNFEEQILEAAKSIAAATSALVKAASAAQRELVAQGKVGAIPANALDDGQWSQGLISAARMVAAATNNLCEAANAAVQGHASQEKLISSAKQVAASTAQLLVACKVKADQDSEAMKRLQAAGNAVKRASDNLVKAAQKAAAFEDQENETVVVKEKMVGGIAQIIAAQEEMLRKERELEEARKKLAQIRQQQYKFLPSELRDEH

What was measured:
[1] = biological target: filamentous actin (F-actin) from rabbit skeletal muscle (rabbit, UniProt P68135 1-377); assay: co-sedimentation
[2] = biological target: the molecule itself; assay: SEC + other: NMR

Row | Binder | co-sedimentation pellet (% of WT) [1] | stoichiometry N [2]
1 | B1 | 100 ± 3 % of WT | 2
2 | B2 | 113 ± 13 % of WT | 2
3 | B3 | 144 ± 8 % of WT | 2
4 | B4 | 43 ± 10 % of WT | –
5 | B5 | 59 ± 5 % of WT | 2
6 | B6 | 42 ± 7 % of WT | –
7 | B7 | 37 ± 9 % of WT | –
8 | B8 | 138 ± 16 % of WT | 2
9 | B9 | 43 ± 5 % of WT | 2
10 | B10 | 33 ± 5 % of WT | –
11 | B11 | 48 ± 10 % of WT | 2
12 | B12 | 36 ± 6 % of WT | –
13 | B13 | 113 ± 3 % of WT | 2
14 | B14 | 154 ± 7 % of WT | 2
15 | B15 | 127 ± 3 % of WT | 2
16 | B16 | 37 ± 3 % of WT | –
17 | B17 | 27 ± 6 % of WT | 2
18 | B18 | 135 ± 13 % of WT | 2
19 | B19 | 96 ± 9 % of WT | 2
